Reference: the Human Domainome abundance scans (Beltran et al. 2025)
± gives the uncertainty stated by the source.

B1: Tumor protein 63, residues 545 to 610; numbered along this chain, Q9H3D4 (parent)
chain: TDCSIVSFLARLGCSSCLDYFTTQGLTTIYQIEHYSMDDLASLKIPEQFRHAIWKGILDHRQLHEF

Variants of: B1
Experiment: abundance fitness (aPCA) (normalised: wild type 0, dead -1); higher = more abundant; growth selection in yeast, the domain comes from the species named
Details: Homo sapiens

| Variant | abundance fitness |
| --- | --- |
| TDCSIVSFLARLGCSSCLDYFTTQGLTTIYQIEHYSMDDLASLKIPEQFPHAIWKGILDHRQLHEF | -0.848 ± 0.072 |
| TDCSIVSFLARLGCSSCLDYFTTQGLTTIYQIEHYSMDVLASLKIPEQFRHAIWKGILDHRQLHEF | -0.265 ± 0.032 |
| TDCSIVSFLARLGCSSCLDYFTTQGLTTIYQIEHYSMDDLASLVIPEQFRHAIWKGILDHRQLHEF | -0.23 ± 0.026 |
| TDCSIVSFLARLGCSSCLDYFTTQGLTTIYQIEHYSMDDLASLKIPEQFRHVIWKGILDHRQLHEF | -0.013 ± 0.023 |
| TDCSIVSFLARLGCSSCLDYFTTQGLTTIYQIEHYSMDDLASLKIPEQFRHWIWKGILDHRQLHEF | -0.076 ± 0.055 |
| TDCSIVSFLARLGCSSCLDYFTTQGLTTIYQIEHYSMDDLASLKIPEQFRHNIWKGILDHRQLHEF | -0.092 ± 0.036 |
| TDCSIVSFLARLGCSSCLDYFTTQGLTTIYQIEHYSMDDLASLKIPEQFRHAIWKGILDHRQLHEC | 0.033 ± 0.2 |
| TDCSKVSFLARLGCSSCLDYFTTQGLTTIYQIEHYSMDDLASLKIPEQFRHAIWKGILDHRQLHEF | -0.921 ± 0.067 |
| TDCSEVSFLARLGCSSCLDYFTTQGLTTIYQIEHYSMDDLASLKIPEQFRHAIWKGILDHRQLHEF | -0.976 ± 0.071 |
| TDCSIVSFLARLGCSSCLDYFTTQGLTTIYQMEHYSMDDLASLKIPEQFRHAIWKGILDHRQLHEF | -0.169 ± 0.032 |
| TDCSIVSFLARLGCSSCLDYFTTQGLTTIYQSEHYSMDDLASLKIPEQFRHAIWKGILDHRQLHEF | -1.01 ± 0.088 |
| TDCSIVSFLARLGCSSCLDYFTTQGLTTIYQIEHYSMDDLASLKIPWQFRHAIWKGILDHRQLHEF | -0.08 ± 0.024 |
| TDCSIVSFLARLGCSSCLDYFTTQGLTTIYQIEHYSMDDLASLKIPNQFRHAIWKGILDHRQLHEF | -0.011 ± 0.058 |
| TDCSIVSFLARLGCSSCLPYFTTQGLTTIYQIEHYSMDDLASLKIPEQFRHAIWKGILDHRQLHEF | 0.004 ± 0.026 |
| TDCSIVSFLARLGCSSCLDYFTTQGLTTIYQIEHYSMDDLASLKIPEQFRRAIWKGILDHRQLHEF | -0.031 ± 0.018 |
| TDCSIVSFLARLGCSSCLDYFTTQGLTTIYQIEHYSMDDLASLKIPEQFRTAIWKGILDHRQLHEF | 0.003 ± 0.026 |
| TDCSIVSFLARLGCSSCLDYFTTQGLTTIYQIEHYSMDDLASLKIPEQFRHAIWKGILDHRQLWEF | -0.075 ± 0.04 |
| TDCSIVSFLARLGCSSCLDYFTTQGLTTIYQIEHYSMDDLASLKIPEQFRHAIWKGILDHRQLSEF | 0.016 ± 0.025 |
| TDCSIVSFLARLGCSSCLDYFTTQGLTTIYQIEHYSMDDLASLKIPEQFRHAIWKGILDHRQLAEF | -0.002 ± 0.021 |
| TDCSIVSFLARLGCSSCLDYLTTQGLTTIYQIEHYSMDDLASLKIPEQFRHAIWKGILDHRQLHEF | -0.56 ± 0.028 |
| TDCSIVSFLARLGCSSCLDYFTTQGVTTIYQIEHYSMDDLASLKIPEQFRHAIWKGILDHRQLHEF | -0.054 ± 0.025 |

| Variant | abundance fitness |
| --- | --- |
| TDCSIVSFLARLGCSSCLDYFTTQGMTTIYQIEHYSMDDLASLKIPEQFRHAIWKGILDHRQLHEF | -0.112 ± 0.032 |
| TDCSIVKFLARLGCSSCLDYFTTQGLTTIYQIEHYSMDDLASLKIPEQFRHAIWKGILDHRQLHEF | -0.028 ± 0.031 |
| TDCSIVRFLARLGCSSCLDYFTTQGLTTIYQIEHYSMDDLASLKIPEQFRHAIWKGILDHRQLHEF | -0.086 ± 0.02 |
| TDCSIVSFLARLGCSSCLDYFTTQGLTTIYQIEHYSMDDLASLKIPEQFRHAHWKGILDHRQLHEF | -0.887 ± 0.071 |
| TDCSIVSFLARLGCSSCLDYFTTQGLTTIYQIEHYSMDDLASLKIPEQFRHAIWKGTLDHRQLHEF | -0.323 ± 0.025 |
| TDCSIVSFLARLGCSSCLDYFTTQGLTTIYQIEHYSMDDLASLKIPEQFRHAIWKGILWHRQLHEF | -0.161 ± 0.027 |
| TDCSIVSFLARLGCSSCLDYFTTQGLTTIYQIEHYSMDDLASLKIPEQFRHAIWKGILEHRQLHEF | -0.006 ± 0.027 |
| TDCSIVSFLARLGCSSCLDYFTTQGLTTIYQIEHYSMDDLASLKIPEQLRHAIWKGILDHRQLHEF | -0.059 ± 0.025 |
| TDCSIVSFLARLGCCSCLDYFTTQGLTTIYQIEHYSMDDLASLKIPEQFRHAIWKGILDHRQLHEF | -0.057 ± 0.037 |
| TDCSIVSFLARLGCGSCLDYFTTQGLTTIYQIEHYSMDDLASLKIPEQFRHAIWKGILDHRQLHEF | -0.059 ± 0.029 |
| TDCSIVSFLCRLGCSSCLDYFTTQGLTTIYQIEHYSMDDLASLKIPEQFRHAIWKGILDHRQLHEF | -0.214 ± 0.029 |
| TDCSIVSFLDRLGCSSCLDYFTTQGLTTIYQIEHYSMDDLASLKIPEQFRHAIWKGILDHRQLHEF | -0.145 ± 0.033 |
| TDMSIVSFLARLGCSSCLDYFTTQGLTTIYQIEHYSMDDLASLKIPEQFRHAIWKGILDHRQLHEF | -0.005 ± 0.025 |
| TDTSIVSFLARLGCSSCLDYFTTQGLTTIYQIEHYSMDDLASLKIPEQFRHAIWKGILDHRQLHEF | -0.015 ± 0.021 |
| TDCSIVSFLARHGCSSCLDYFTTQGLTTIYQIEHYSMDDLASLKIPEQFRHAIWKGILDHRQLHEF | -0.099 ± 0.042 |
| TDCSIVSFLARDGCSSCLDYFTTQGLTTIYQIEHYSMDDLASLKIPEQFRHAIWKGILDHRQLHEF | -0.836 ± 0.078 |
| TDCSIVSFLAREGCSSCLDYFTTQGLTTIYQIEHYSMDDLASLKIPEQFRHAIWKGILDHRQLHEF | -0.285 ± 0.038 |
| TDCDIVSFLARLGCSSCLDYFTTQGLTTIYQIEHYSMDDLASLKIPEQFRHAIWKGILDHRQLHEF | -0.05 ± 0.027 |
| TDCSIVSFLARLGCSSCLDYFTTQGLTTIYQIEHYSMDDLASLKIPEQFRHAIWKWILDHRQLHEF | -0.811 ± 0.063 |
| TDCSIVSFLARLGCSSCLDYFTTQGLTTIYQIEHYSMDDLASLKIPEQFRHAIWKHILDHRQLHEF | -0.363 ± 0.061 |
